Experimental data published in the RNAGym collection of RNA variant scans (doi:10.7554/elife.80360).

B1: HDV Ribozyme (parent)
chain: GGCCGGCAUGGUCCCAGCCUCCUCGCUGGCGCCGGCUGGGCAACAUUCCGAGGGGACCGUCCCCUCGGUAAUGGCGAAUGGGACCCA

Variants of: B1
Test: self-cleavage, relative activity (ratio to wild type); higher = more cleavage; co-transcriptional

Row | Variant | self-cleavage
1 | GGCCGGCAUGGUCCCAGCCUCCUCGCUGGCGCCGGCUGUGCAACAUUCCGAGGGGACCGUCCCCUCGGUAAUGGCGAAUGGGACCGA [G39U C86G] | 0.784
2 | GGCCGGCAUGGUCCCAGCCUCCUCGCUGGCGCCGGCUGUGCAACAUUCCCAGGGGACCGUCCCCUCGGUAAUGGCGAAUGGGACCCA [G39U G50C] | 0.598
3 | GGCCGGCAUGGUCCCAGCCUCCUCGCUGGCGCCGGCUGUGCAACAUUCCGAGGGGACCGUCCCCACGGUAAUGGCGAAUGGGACCCA [G39U U65A] | 0.627
4 | GGCCGGCAUGGUCCCAGCCUCCUCGCUGGCGCCGGCUGUGCAACGUUCCGAGGGGACCGUCCCCUCGGUAAUGGCGAAUGGGACCCA [G39U A45G] | 0.743
5 | GGCCGGCAUGGUCCCAGCCUCCUCGCUGGCGCCGGCUGUGCAACAUUCCGAGGGGACCGUCCCCUCGGUAAGGGCGAAUGGGACCCA [G39U U72G] | 0.284
6 | GGCCGGCAUGGUCCCAGCCUCCUCGCUGGCGCCGGCUGUGCAACAUUCCGAGGGGACUGUCCCCUCGGUAAUGGCGAAUGGGACCCA [G39U C58U] | 0.716
7 | GGCCGGCAUGGUCCCAGCCUCCUCGCUGGCGCCGGCUGUGCAACAUUCCGAGGGGACCGACCCCUCGGUAAUGGCGAAUGGGACCCA [G39U U60A] | 0.623
8 | GGCCGGCAUGGUCCCAGCCUCCUCGCUGGCGCCGGCUGUGCAACAUUCCGAGGGGACCGCCCCCUCGGUAAUGGCGAAUGGGACCCA [G39U U60C] | 0.772
9 | GGCCGGCAUGGUCCCAGCCUCCUCGCUGGCGCCGGCUGGACAACAUUCCGAGGGGACCGUCGCCUCGGUAAUGGCGAAUGGGACCCA [G40A C62G] | 0.432
10 | GGCCGGCAUGGUCCCAGCCUCCUCGCUGGCGCCGGCUGGACGACAUUCCGAGGGGACCGUCCCCUCGGUAAUGGCGAAUGGGACCCA [G40A A42G] | 0.475
11 | GGCCGGCAUGGUCCCAGCCUCCUCGCUGGCGCCGGCUGCGCAACAUUCCGAGGGGACCGUCCCCUCGGAAAUGGCGAAUGGGACCCA [G39C U69A] | 0.17
12 | GGCCGGCAUGGUCCCAGCCUCCUCGCUGGCGCCGGCUGGACAACGUUCCGAGGGGACCGUCCCCUCGGUAAUGGCGAAUGGGACCCA [G40A A45G] | 0.815
13 | GGCCGGCAUGGUCCCAGCCUCCUCGCUGGCGCCGGCUGUGCAACAUUCCGAGGCGACCGUCCCCUCGGUAAUGGCGAAUGGGACCCA [G39U G54C] | 0.76
14 | GGCCGGCAUGGUCCCAGCCUCCUCGCUGGCGCCGGCUGUGCAACAUUCCGAGGGCACCGUCCCCUCGGUAAUGGCGAAUGGGACCCA [G39U G55C] | 0.698
15 | GGCCGGCAUGGUCCCAGCCUCCUCGCUGGCGCCGGCUGUGGAACAUUCCGAGGGGACCGUCCCCUCGGUAAUGGCGAAUGGGACCCA [G39U C41G] | 0.46
16 | GGCCGGCAUGGUCCCAGCCUCCUCGCUGGCGCCGGCUGUGCAACAUUCCGAGGGGACCGUCCCCUCGGUAAUGGCAAAUGGGACCCA [G39U G76A] | 0.67
17 | GGCCGGCAUGGUCCCAGCCUCCUCGCUGGCGCCGGCUGUGCAACAUUCCGAGGGGACCGUCCCCUCGGUAAUGGCCAAUGGGACCCA [G39U G76C] | 0.724
18 | GGCCGGCAUGGUCCCAGCCUCCUCGCUGGCGCCGGCUGGACAACAUUCCGAGGGGACCGUCCCCUCGGUGAUGGCGAAUGGGACCCA [G40A A70G] | 0.914
19 | GGCCGGCAUGGUCCCAGCCUCCUCGCUGGCGCCGGCUGGACAACAUUCCGAGGGGACCGUCCCCUCGGUUAUGGCGAAUGGGACCCA [G40A A70U] | 0.868
20 | GGCCGGCAUGGUCCCAGCCUCCUCGCUGGCGCCGGCUGUGCAACAUUCCGAGGGGACCGUCCCCUCGGUAAUGGCGAAUGGGACCCC [G39U A87C] | 0.646
21 | GGCCGGCAUGGUCCCAGCCUCCUCGCUGGCGCCGGCUGUGCAACAUUCCGAGGGGACCGUCCCCUCGGUAAUGGCGAAUGGGACCCG [G39U A87G] | 0.661
22 | GGCCGGCAUGGUCCCAGCCUCCUCGCUGGCGCCGGCUGUGCAACAUUCCGAGGGGACCGUCCCCUCGGUAAUGCCGAAUGGGACCCA [G39U G74C] | 0.23

Row | Variant | self-cleavage
23 | GGCCGGCAUGGUCCCAGCCUCCUCGCUGGCGCCGGCUGUGCAACAUUCCGAGGGGACCGUCCCCUCGGUAAUGUCGAAUGGGACCCA [G39U G74U] | 0.382
24 | GGCCGGCAUGGUCCCAGCCUCCUCGCUGGCGCCGGCUGUGCAACAUUCCGAGGGGACCGUCCCCUCGGUAAUGACGAAUGGGACCCA [G39U G74A] | 0.669
25 | GGCCGGCAUGGUCCCAGCCUCCUCGCUGGCGCCGGCUGUGCAACAUUCCGAGGGGACCGUCCCCUCGGUAAUGGCGAAUGGGACUCA [G39U C85U] | 0.674
26 | GGCCGGCAUGGUCCCAGCCUCCUCGCUGGCGCCGGCUGUGCAACAUUCCGAGGGGACCGUCCCCUCGGGAAUGGCGAAUGGGACCCA [G39U U69G] | 0.635
27 | GGCCGGCAUGGUCCCAGCCUCCUCGCUGGCGCCGGCUGUGCAACAUUCCGAGGGGACCGUCCGCUCGGUAAUGGCGAAUGGGACCCA [G39U C63G] | 0.507
28 | GGCCGGCAUGGUCCCAGCCUCCUCGCUGGCGCCGGCUGCGCAACAUUCCGAGGGGACCGUCCCCUCGGUAAUGGCGAAUGGAACCCA [G39C G82A] | 0.0308
29 | GGCCGGCAUGGUCCCAGCCUCCUCGCUGGCGCCGGCUGCGCAACAUUCCGAGGGGACCGUCCCCUCGGUAAUGGCGAAUGGUACCCA [G39C G82U] | 0.0791
30 | GGCCGGCAUGGUCCCAGCCUCCUCGCUGGCGCCGGCUGGAUAACAUUCCGAGGGGACCGUCCCCUCGGUAAUGGCGAAUGGGACCCA [G40A C41U] | 0.87
31 | GGCCGGCAUGGUCCCAGCCUCCUCGCUGGCGCCGGCUGUGCAACAUUCCGAGUGGACCGUCCCCUCGGUAAUGGCGAAUGGGACCCA [G39U G53U] | 0.587
32 | GGCCGGCAUGGUCCCAGCCUCCUCGCUGGCGCCGGCUGUGCAACAUUCCGAGGGGACCGUCCCCUCGGUAAUGGCGAAUGGGAGCCA [G39U C84G] | 0.348
33 | GGCCGGCAUGGUCCCAGCCUCCUCGCUGGCGCCGGCUGUGCAACAUUCCGAGGGGACCGUCCCCUCGGUAAUGGCGAAUGGGAACCA [G39U C84A] | 0.495
34 | GGCCGGCAUGGUCCCAGCCUCCUCGCUGGCGCCGGCUGUGCAACAUUCCGAGGGGACCGUCCCCUCGGUAAUGGCGAAUGGCACCCA [G39U G82C] | 0.168
35 | GGCCGGCAUGGUCCCAGCCUCCUCGCUGGCGCCGGCUGCGCAACAUUCCGAGGGGACCGUCCCCUCGGUAAUGGCUAAUGGGACCCA [G39C G76U] | 0.831
36 | GGCCGGCAUGGUCCCAGCCUCCUCGCUGGCGCCGGCUGUGCAACAUUGCGAGGGGACCGUCCCCUCGGUAAUGGCGAAUGGGACCCA [G39U C48G] | 0.862
37 | GGCCGGCAUGGUCCCAGCCUCCUCGCUGGCGCCGGCUGUGCAACAUUUCGAGGGGACCGUCCCCUCGGUAAUGGCGAAUGGGACCCA [G39U C48U] | 0.594
38 | GGCCGGCAUGGUCCCAGCCUCCUCGCUGGCGCCGGCUGUGCAACAUUACGAGGGGACCGUCCCCUCGGUAAUGGCGAAUGGGACCCA [G39U C48A] | 0.658
39 | GGCCGGCAUGGUCCCAGCCUCCUCGCUGGCGCCGGCUGUGCAACAUUCCGAGGGGACCGUCCCCUCGGUAAUAGCGAAUGGGACCCA [G39U G73A] | 0.249
40 | GGCCGGCAUGGUCCCAGCCUCCUCGCUGGCGCCGGCUGCGCAACAUUCCGAGGGGACCGUCCCCUCGGUAAUGGCGAAUUGGACCCA [G39C G80U] | 0.101
41 | GGCCGGCAUGGUCCCAGCCUCCUCGCUGGCGCCGGCUGUGCAACAUUCCGAGGGGACCGUCCCCUCCGUAAUGGCGAAUGGGACCCA [G39U G67C] | 0.746
42 | GGCCGGCAUGGUCCCAGCCUCCUCGCUGGCGCCGGCUGUGCAACAUUCCGAGGGGACCGUCCCCUCAGUAAUGGCGAAUGGGACCCA [G39U G67A] | 0.698
43 | GGCCGGCAUGGUCCCAGCCUCCUCGCUGGCGCCGGCUGGACAACAUUCCGAGGGGACCGUGCCCUCGGUAAUGGCGAAUGGGACCCA [G40A C61G] | 1.17
44 | GGCCGGCAUGGUCCCAGCCUCCUCGCUGGCGCCGGCUGGACAACAUUCCGAGGGGACCGUCCCCUCGGUAAUGGCGGAUGGGACCCA [G40A A77G] | 1.05

Row | Variant | self-cleavage
45 | GGCCGGCAUGGUCCCAGCCUCCUCGCUGGCGCCGGCUGCGCAACAUUCCGAGGGGACCGUCCCCUCGGUAAAGGCGAAUGGGACCCA [G39C U72A] | 0.0426
46 | GGCCGGCAUGGUCCCAGCCUCCUCGCUGGCGCCGGCUGUGCAACAUUCCGAGGGGACCGUCCCCUCGGUAAUGGCGAAUGAGACCCA [G39U G81A] | 0.228
47 | GGCCGGCAUGGUCCCAGCCUCCUCGCUGGCGCCGGCUGGACAACAUUCGGAGGGGACCGUCCCCUCGGUAAUGGCGAAUGGGACCCA [G40A C49G] | 0.944
48 | GGCCGGCAUGGUCCCAGCCUCCUCGCUGGCGCCGGCUGUGCAAAAUUCCGAGGGGACCGUCCCCUCGGUAAUGGCGAAUGGGACCCA [G39U C44A] | 0.0627
49 | GGCCGGCAUGGUCCCAGCCUCCUCGCUGGCGCCGGCUGGACAACAUUCCGAGGGGACCGUCCCCUCGGUAAUGGCGAAUGGGACCCU [G40A A87U] | 1.02
50 | GGCCGGCAUGGUCCCAGCCUCCUCGCUGGCGCCGGCUGCGCAACAUCCCGAGGGGACCGUCCCCUCGGUAAUGGCGAAUGGGACCCA [G39C U47C] | 0.166
51 | GGCCGGCAUGGUCCCAGCCUCCUCGCUGGCGCCGGCUGUGCAACAUUCCGAGGGGACCAUCCCCUCGGUAAUGGCGAAUGGGACCCA [G39U G59A] | 0.636
52 | GGCCGGCAUGGUCCCAGCCUCCUCGCUGGCGCCGGCUGUACAACAUUCCGAGGGGACCGUCCCCUCGGUAAUGGCGAAUGGGACCCA [G39U G40A] | 0.807
53 | GGCCGGCAUGGUCCCAGCCUCCUCGCUGGCGCCGGCUGUCCAACAUUCCGAGGGGACCGUCCCCUCGGUAAUGGCGAAUGGGACCCA [G39U G40C] | 0.451
54 | GGCCGGCAUGGUCCCAGCCUCCUCGCUGGCGCCGGCUGUGCAACAUUCCGAGGGGACCGUCCCCUCGGUCAUGGCGAAUGGGACCCA [G39U A70C] | 0.536
55 | GGCCGGCAUGGUCCCAGCCUCCUCGCUGGCGCCGGCUGUGCAACAUUCCGAGGGGACCGUCCCCUCGGUGAUGGCGAAUGGGACCCA [G39U A70G] | 0.637
56 | GGCCGGCAUGGUCCCAGCCUCCUCGCUGGCGCCGGCUGGACAACAUUCCGGGGGGACCGUCCCCUCGGUAAUGGCGAAUGGGACCCA [G40A A51G] | 0.749
57 | GGCCGGCAUGGUCCCAGCCUCCUCGCUGGCGCCGGCUGUGCACCAUUCCGAGGGGACCGUCCCCUCGGUAAUGGCGAAUGGGACCCA [G39U A43C] | 0.237
58 | GGCCGGCAUGGUCCCAGCCUCCUCGCUGGCGCCGGCUGUGCCACAUUCCGAGGGGACCGUCCCCUCGGUAAUGGCGAAUGGGACCCA [G39U A42C] | 0.237
59 | GGCCGGCAUGGUCCCAGCCUCCUCGCUGGCGCCGGCUGUGCUACAUUCCGAGGGGACCGUCCCCUCGGUAAUGGCGAAUGGGACCCA [G39U A42U] | 0.378
60 | GGCCGGCAUGGUCCCAGCCUCCUCGCUGGCGCCGGCUGGACAACAUUCCGAGGGGACCGUCCCCUAGGUAAUGGCGAAUGGGACCCA [G40A C66A] | 0.808
61 | GGCCGGCAUGGUCCCAGCCUCCUCGCUGGCGCCGGCUGCGCAACAUUCCGAGGGGACCGUCCCCUCGGUAAUGGCGAAUGUGACCCA [G39C G81U] | 0.143
62 | GGCCGGCAUGGUCCCAGCCUCCUCGCUGGCGCCGGCUGGACACCAUUCCGAGGGGACCGUCCCCUCGGUAAUGGCGAAUGGGACCCA [G40A A43C] | 0.601
63 | GGCCGGCAUGGUCCCAGCCUCCUCGCUGGCGCCGGCUGGACAACAUUCCGAGGGGACCGUCCCCUCGGUAGUGGCGAAUGGGACCCA [G40A A71G] | 0.748
64 | GGCCGGCAUGGUCCCAGCCUCCUCGCUGGCGCCGGCUGUGCAACAUUCCGAGGGGACCGUUCCCUCGGUAAUGGCGAAUGGGACCCA [G39U C61U] | 0.58
